# Laboratory results published in the supplement of paper PMC7125110.
# ± gives the standard error. For some of these results: This sample holds only a part of the variants without activity.
# B1: glmS ribozyme (parent)
# chain: AUAAAAGCGCCAGAACUACAGAAAUGUAGUUGACGAGGAGGAGGUUUAUCGAAUUUUCGGCGGAUGCCUCCAAA
# Columns and labels:
# Conditions in all cases: with glucosamine-6-phosphate
# glucosamine-6-phosphate [1] = variants of: B1; test: kcat; higher = faster cleavage; RNA array
# Method in brief: (§1)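 Glucosamine-6-phosphate in HEPES/KCl/Mg(OAc)2 buffer, at 40 μM to 10 mM, was flowed over barcoded ribozyme variants transcribed in situ by E. coli RNA polymerase on sequenced MiSeq chips. Tracking was through a hybridised Cy3 probe at 37 °C. kobs, kcat and KM came from exponential decay fits and weighted Michaelis–Menten fits of normalised per-tile medians.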
# glucosamine-6-phosphate [2] = variants of: B1; test: KM; higher = weaker cofactor use; RNA array
# Method in brief: as §1
# glucosamine-6-phosphate [3] = variants of: B1; test: self-cleavage kobs at 40 uM GlcN6P; higher = faster cleavage; RNA array
# Method in brief: as §1
# glucosamine-6-phosphate [4] = variants of: B1; test: self-cleavage kobs at 160 uM GlcN6P; higher = faster cleavage; RNA array
# Method in brief: as §1
# glucosamine-6-phosphate [5] = variants of: B1; test: self-cleavage kobs at 640 uM GlcN6P; higher = faster cleavage; RNA array
# Method in brief: as §1
# glucosamine-6-phosphate [6] = variants of: B1; test: self-cleavage kobs at 2500 uM GlcN6P; higher = faster cleavage; RNA array
# Method in brief: as §1
# glucosamine-6-phosphate [7] = variants of: B1; test: self-cleavage kobs at 10000 uM GlcN6P; higher = faster cleavage; RNA array
# Method in brief: as §1
Variant,kcat (glucosamine-6-phosphate [1]) [s⁻¹],KM (glucosamine-6-phosphate [2]) [µM],self-cleavage kobs at 40 uM GlcN6P (glucosamine-6-phosphate [3]) [s⁻¹],self-cleavage kobs at 160 uM GlcN6P (glucosamine-6-phosphate [4]) [s⁻¹],self-cleavage kobs at 640 uM GlcN6P (glucosamine-6-phosphate [5]) [s⁻¹],self-cleavage kobs at 2500 uM GlcN6P (glucosamine-6-phosphate [6]) [s⁻¹],self-cleavage kobs at 10000 uM GlcN6P (glucosamine-6-phosphate [7]) [s⁻¹]
U46G U65A C71U,0.00287 ± 0.00028,2140 ± 340,4.68e-05 ± 1.3e-05,0.000191 ± 6.8e-05,0.000735 ± 0.00016,0.00173 ± 0.00035,0.00224 ± 0.00038
A39G U45A,0.0357 ± 0.011,581 ± 220,0.00238 ± 0.00029,0.00768 ± 0.0018,0.0157 ± 0.0034,0.061 ± 0.03,0.0497 ± 0.018
A14G C58U C61U,1.33e-05 ± 2.7e-06,–,< 1e-05,–,–,–,–
A6U U30C C68U,2.13e-05 ± 7.2e-06,–,–,–,< 1e-05,–,–
U30G U69A,8.59e-05 ± 2.5e-05,–,–,3.45e-05 ± 1.7e-05,4.5e-05 ± 1.1e-05,0.00013 ± 2e-05,6.73e-05 ± 1.4e-05
C19A C67G,0.000349 ± 4.1e-05,295 ± 93,–,0.000171 ± 4.8e-05,0.000207 ± 7.2e-05,0.000309 ± 7.1e-05,0.000347 ± 7.3e-05
A12G A14G,0.00308 ± 0.00041,4770 ± 950,2.51e-05 ± 6.2e-06,8.41e-05 ± 1.3e-05,0.000405 ± 4.5e-05,0.00121 ± 0.00015,0.00203 ± 0.00016
A52G U55C,0.00205 ± 0.00032,3680 ± 850,3.24e-05 ± 8.4e-06,8.26e-05 ± 1.2e-05,0.000325 ± 5e-05,0.000739 ± 9.4e-05,0.00158 ± 0.00017
U47C C50G,< 1e-05,–,–,–,< 1e-05,–,–
G13A U47G,0.000123 ± 1.6e-05,1830 ± 670,–,–,2.44e-05 ± 9.5e-06,8.26e-05 ± 1.3e-05,9.97e-05 ± 1.3e-05
G29U A48G,1.1e-05 ± 1.6e-06,–,–,–,–,–,–
U30C C58G C68A,5.09e-05 ± 2.1e-05,–,–,–,9.15e-05 ± 3.9e-05,7.09e-05 ± 1.9e-05,–
G38U U54C,< 1e-05,–,< 1e-05,< 1e-05,< 1e-05,–,–
C11U C70A,5.41e-05 ± 1e-05,–,–,–,8.46e-05 ± 1.3e-05,5.81e-05 ± 9.9e-06,4.63e-05 ± 6.2e-06
G37A U47A,0.00374 ± 0.0017,–,4.6e-05 ± 1.8e-05,7.83e-05 ± 1.8e-05,0.000278 ± 4.8e-05,0.000752 ± 0.00014,0.00229 ± 0.00044
A15C U54G,0.00559 ± 0.0011,2690 ± 780,0.000104 ± 1.6e-05,0.000285 ± 5.1e-05,0.000903 ± 0.00029,0.00205 ± 0.00055,0.00475 ± 0.0006
A12U C50U C67G,4.36e-05 ± 2.1e-05,–,–,–,6.16e-05 ± 2.1e-05,–,–

Variant,kcat (glucosamine-6-phosphate [1]) [s⁻¹],KM (glucosamine-6-phosphate [2]) [µM],self-cleavage kobs at 40 uM GlcN6P (glucosamine-6-phosphate [3]) [s⁻¹],self-cleavage kobs at 160 uM GlcN6P (glucosamine-6-phosphate [4]) [s⁻¹],self-cleavage kobs at 640 uM GlcN6P (glucosamine-6-phosphate [5]) [s⁻¹],self-cleavage kobs at 2500 uM GlcN6P (glucosamine-6-phosphate [6]) [s⁻¹],self-cleavage kobs at 10000 uM GlcN6P (glucosamine-6-phosphate [7]) [s⁻¹]
G35A G37A,< 1e-05,–,–,< 1e-05,–,–,–
A33C A39U,0.000401 ± 2.3e-05,4000 ± 470,–,–,5.65e-05 ± 7.9e-06,0.000146 ± 1.9e-05,0.000289 ± 1.9e-05
G32U U55G U56A,0.000802 ± 4.9e-05,5530 ± 450,–,–,8.29e-05 ± 1.1e-05,0.000255 ± 4.3e-05,0.000509 ± 0.00011
A12G G62C,< 1e-05,151 ± 74,–,–,–,–,< 1e-05
C16G U30G,0.000352 ± 3e-05,4110 ± 700,–,–,4.35e-05 ± 1.3e-05,0.000146 ± 2.8e-05,0.000246 ± 3.2e-05
A42U A53G,0.000266 ± 4.7e-05,2160 ± 870,–,–,4.83e-05 ± 1.2e-05,0.000175 ± 2.1e-05,0.000206 ± 2.4e-05
U30A A53G,0.00645 ± 0.0027,–,0.000256 ± 5.1e-05,0.000553 ± 0.00023,0.00196 ± 0.00055,0.00301 ± 0.00096,0.00929 ± 0.002
A33C U54A,0.00129 ± 0.00021,7810 ± 1700,–,4.1e-05 ± 1.7e-05,9.44e-05 ± 1.2e-05,0.000323 ± 6.1e-05,0.000722 ± 0.0001
C10U U55C,3.56e-05 ± 9.4e-06,–,< 1e-05,–,–,–,1.93e-05 ± 9e-06
G13U A15G G32A C70G,9.35e-05 ± 2.2e-06,405 ± 40,–,–,5.48e-05 ± 1.7e-05,8.14e-05 ± 1.6e-05,8.98e-05 ± 1.9e-05
A14G A48G,0.000249 ± 3.2e-05,648 ± 220,–,3.64e-05 ± 1.4e-05,0.000128 ± 1.4e-05,0.000232 ± 2.6e-05,0.000203 ± 2.9e-05
C50A G66C C67U,1.02e-05 ± 2.9e-06,–,–,–,–,–,–
U46C C68G,5.04e-05 ± 2e-06,811 ± 200,–,–,–,–,4.62e-05 ± 1.3e-05
U54G G59A,9.1e-05 ± 6.5e-06,858 ± 300,–,–,–,6.93e-05 ± 2.3e-05,8.23e-05 ± 3e-05
G13C A14U,0.000311 ± 2.1e-05,2100 ± 320,–,–,6.86e-05 ± 1.5e-05,0.000186 ± 3e-05,0.00025 ± 3.1e-05
A15C U65G,0.00172 ± 0.00056,4120 ± 1900,3.62e-05 ± 1.3e-05,4.69e-05 ± 1.1e-05,0.000252 ± 3.6e-05,0.000818 ± 0.00012,0.00111 ± 0.00017
